Experimental data as given in the supplement of paper PMC9112550, “Optimization of the antimicrobial peptide Bac7 by deep mutational scanning” (BMC Biology, 2022).

Each sequence was assayed on Escherichia coli TOP10 (assay: shrunken log2 fold change of peptide-encoding DNA abundance (4.5 h post-induction vs induction); higher = less antimicrobial activity (less host growth inhibition)). Conditions: time post-induction: 4.5 h; library: site-saturation at positions 5, 18, 19, 20.
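Note: peptides expressed intracellularly from a pBAD plasmid library in pooled LB shake-flask culture, induced with 0.3% L-arabinose, DNA abundance read by NGS, three biological replicates, DESeq2 with apeglm shrinkage.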

Sequence | shrunken log2 fold change
RRIRKRPPRLPRPRPRPKHDPRP | 0.133
RRIRKRPPRLPRPRPRPKHEPRP | 0.134
RRIRKRPPRLPRPRPRPKHNPRP | 0.0641
RRIRKRPPRLPRPRPRPKLFPRP | 0.379
RRIRKRPPRLPRPRPRPKLQPRP | 0.423
RRIRKRPPRLPRPRPRPKLSPRP | -0.0159
RRIRKRPPRLPRPRPRPKMAPRP | 0.169
RRIRKRPPRLPRPRPRPKMVPRP | -0.031
RRIRKRPPRLPRPRPRPKNVPRP | 0.0773
RRIRKRPPRLPRPRPRPKPCPRP | 0.0204
RRIRKRPPRLPRPRPRPKPIPRP | 0.742
RRIRKRPPRLPRPRPRPKQDPRP | 0.119
RRIRKRPPRLPRPRPRPKQNPRP | 0.706
RRIRKRPPRLPRPRPRPKQWPRP | 0.216
RRIRKRPPRLPRPRPRPKRYPRP | 0.032
RRIRKRPPRLPRPRPRPKTMPRP | 0.185
RRIRKRPPRLPRPRPRPKTYPRP | -0.156
RRIRKRPPRLPRPRPRPKVGPRP | 0.00386
RRIRKRPPRLPRPRPRPKWCPRP | 0.152
RRIRKRPPRLPRPRPRPKYGPRP | -0.206
RRIRKRPPRLPRPRPRPKYMPRP | -0.0337
RRIRKRPPRLPRPRPRPLAIPRP | 0.0828
RRIRKRPPRLPRPRPRPLASPRP | 0.0708
RRIRKRPPRLPRPRPRPLAYPRP | 0.259
RRIRKRPPRLPRPRPRPLCCPRP | 0.104

Sequence | shrunken log2 fold change
RRIRKRPPRLPRPRPRPLCMPRP | 0.081
RRIRKRPPRLPRPRPRPLCRPRP | 0.392
RRIRKRPPRLPRPRPRPLDEPRP | 0.0161
RRIRKRPPRLPRPRPRPLFSPRP | -0.0137
RRIRKRPPRLPRPRPRPLFTPRP | 0.331
RRIRKRPPRLPRPRPRPLGFPRP | 0.872
RRIRKRPPRLPRPRPRPLGIPRP | 4.29
RRIRKRPPRLPRPRPRPLIFPRP | -0.0683
RRIRKRPPRLPRPRPRPLIIPRP | -0.501
RRIRKRPPRLPRPRPRPLIYPRP | -0.213
RRIRKRPPRLPRPRPRPLLIPRP | -0.11
RRIRKRPPRLPRPRPRPLLMPRP | -0.109
RRIRKRPPRLPRPRPRPLMKPRP | 0.0125
RRIRKRPPRLPRPRPRPLPDPRP | -0.105
RRIRKRPPRLPRPRPRPLPMPRP | 0.562
RRIRKRPPRLPRPRPRPLQCPRP | 0.101
RRIRKRPPRLPRPRPRPLQPPRP | 0.349
RRIRKRPPRLPRPRPRPLRDPRP | 0.757
RRIRKRPPRLPRPRPRPLRTPRP | 0.727
RRIRKRPPRLPRPRPRPLSWPRP | 0.826
RRIRKRPPRLPRPRPRPLTPPRP | 0.658
RRIRKRPPRLPRPRPRPLTTPRP | 0.539
RRIRKRPPRLPRPRPRPLVAPRP | 0.805
RRIRKRPPRLPRPRPRPLVNPRP | -0.0445
RRIRKRPPRLPRPRPRPLVRPRP | 0.114

Sequence | shrunken log2 fold change
RRIRKRPPRLPRPRPRPLVSPRP | 0.0109
RRIRKRPPRLPRPRPRPLYGPRP | -0.289
RRIRKRPPRLPRPRPRPLYYPRP | -0.458
RRIRKRPPRLPRPRPRPMAIPRP | 0.116
RRIRKRPPRLPRPRPRPMCMPRP | -0.169
RRIRKRPPRLPRPRPRPMCTPRP | -0.0805
RRIRKRPPRLPRPRPRPMDKPRP | 0.166
RRIRKRPPRLPRPRPRPMDWPRP | 0.256
RRIRKRPPRLPRPRPRPMESPRP | 0.0143
RRIRKRPPRLPRPRPRPMFNPRP | -0.0523
RRIRKRPPRLPRPRPRPMGWPRP | 0.31
RRIRKRPPRLPRPRPRPMHCPRP | 3.88
RRIRKRPPRLPRPRPRPMISPRP | 0.18
RRIRKRPPRLPRPRPRPMITPRP | -0.278
RRIRKRPPRLPRPRPRPMKLPRP | 0.0347
RRIRKRPPRLPRPRPRPMLHPRP | 0.164
RRIRKRPPRLPRPRPRPMNGPRP | -0.0531
RRIRKRPPRLPRPRPRPMNHPRP | 0.395
RRIRKRPPRLPRPRPRPMNTPRP | -0.287
RRIRKRPPRLPRPRPRPMPHPRP | 0.274
RRIRKRPPRLPRPRPRPMPPPRP | 0.729
RRIRKRPPRLPRPRPRPMSFPRP | 0.106
RRIRKRPPRLPRPRPRPMVEPRP | 0.0956
RRIRKRPPRLPRPRPRPNAPPRP | 0.449
RRIRKRPPRLPRPRPRPNCMPRP | -0.0663

Sequence | shrunken log2 fold change
RRIRKRPPRLPRPRPRPNCPPRP | 0.0785
RRIRKRPPRLPRPRPRPNDFPRP | -0.0772
RRIRKRPPRLPRPRPRPNDMPRP | 0.194
RRIRKRPPRLPRPRPRPNDQPRP | -0.101
RRIRKRPPRLPRPRPRPNERPRP | -0.0286
RRIRKRPPRLPRPRPRPNESPRP | -0.0703
RRIRKRPPRLPRPRPRPNFCPRP | -0.0549
RRIRKRPPRLPRPRPRPNHTPRP | -0.213
RRIRKRPPRLPRPRPRPNIQPRP | -0.0271
RRIRKRPPRLPRPRPRPNKQPRP | -0.0316
RRIRKRPPRLPRPRPRPNNHPRP | -0.469
RRIRKRPPRLPRPRPRPNPRPRP | 0.228
RRIRKRPPRLPRPRPRPNQWPRP | 0.274
RRIRKRPPRLPRPRPRPNRAPRP | -0.0335
RRIRKRPPRLPRPRPRPNRGPRP | 0.0385
RRIRKRPPRLPRPRPRPNRSPRP | -0.0169
RRIRKRPPRLPRPRPRPNSFPRP | -0.234
RRIRKRPPRLPRPRPRPNSHPRP | -0.272
RRIRKRPPRLPRPRPRPNSKPRP | 0.0385
RRIRKRPPRLPRPRPRPNVCPRP | -0.144
RRIRKRPPRLPRPRPRPNVEPRP | 0.192
RRIRKRPPRLPRPRPRPNYSPRP | -0.0472
RRIRKRPPRLPRPRPRPNYVPRP | -0.087
RRIRKRPPRLPRPRPRPNYYPRP | -0.305
RRIRKRPPRLPRPRPRPPAFPRP | 0.309

Sequence | shrunken log2 fold change
RRIRKRPPRLPRPRPRPPCAPRP | 0.804
RRIRKRPPRLPRPRPRPPCCPRP | 0.39
RRIRKRPPRLPRPRPRPPDFPRP | 0.12
RRIRKRPPRLPRPRPRPPEHPRP | 0.197
RRIRKRPPRLPRPRPRPPEKPRP | 0.00179
RRIRKRPPRLPRPRPRPPENPRP | 1.15
RRIRKRPPRLPRPRPRPPERPRP | 2.02
RRIRKRPPRLPRPRPRPPHLPRP | 0.332
RRIRKRPPRLPRPRPRPPMAPRP | 0.41
RRIRKRPPRLPRPRPRPPNKPRP | 0.289
RRIRKRPPRLPRPRPRPPPDPRP | 0.906
RRIRKRPPRLPRPRPRPPPMPRP | 0.826
RRIRKRPPRLPRPRPRPPQFPRP | 0.127
RRIRKRPPRLPRPRPRPPRTPRP | 0.829
RRIRKRPPRLPRPRPRPPSDPRP | 0.75
RRIRKRPPRLPRPRPRPPSIPRP | 0.0697
RRIRKRPPRLPRPRPRPPVMPRP | 0.337
RRIRKRPPRLPRPRPRPPWGPRP | 0.501
RRIRKRPPRLPRPRPRPQCKPRP | 0.0757
RRIRKRPPRLPRPRPRPQCSPRP | 0.136
RRIRKRPPRLPRPRPRPQDTPRP | -0.0445
RRIRKRPPRLPRPRPRPQGEPRP | -0.000844
RRIRKRPPRLPRPRPRPQHAPRP | 0.232
RRIRKRPPRLPRPRPRPQKVPRP | -0.0143
RRIRKRPPRLPRPRPRPQLWPRP | 0.539

Sequence | shrunken log2 fold change
RRIRKRPPRLPRPRPRPQMAPRP | 0.481
RRIRKRPPRLPRPRPRPQMFPRP | -0.00577
RRIRKRPPRLPRPRPRPQNIPRP | -0.21
RRIRKRPPRLPRPRPRPQPIPRP | 0.424
RRIRKRPPRLPRPRPRPQPMPRP | 0.462
RRIRKRPPRLPRPRPRPQPVPRP | 0.095
RRIRKRPPRLPRPRPRPQRYPRP | 0.132
RRIRKRPPRLPRPRPRPQSMPRP | -0.00568
RRIRKRPPRLPRPRPRPQTGPRP | 0.0141
RRIRKRPPRLPRPRPRPQTLPRP | 0.0931
RRIRKRPPRLPRPRPRPQVDPRP | 0.288
RRIRKRPPRLPRPRPRPQVPPRP | 0.325
RRIRKRPPRLPRPRPRPQWQPRP | 0.0827
RRIRKRPPRLPRPRPRPQYIPRP | 0.102
RRIRKRPPRLPRPRPRPQYSPRP | -0.906
RRIRKRPPRLPRPRPRPRAPPRP | 0.538
RRIRKRPPRLPRPRPRPRCGPRP | 0.451
RRIRKRPPRLPRPRPRPRDGPRP | 0.822
RRIRKRPPRLPRPRPRPREYPRP | 0.261
RRIRKRPPRLPRPRPRPRFHPRP | 0.077
RRIRKRPPRLPRPRPRPRFPPRP | 0.647
RRIRKRPPRLPRPRPRPRFSPRP | 0.17
RRIRKRPPRLPRPRPRPRGLPRP | 0.41
RRIRKRPPRLPRPRPRPRHQPRP | 1.82
RRIRKRPPRLPRPRPRPRIRPRP | 0.344
